Measured values from patent US20230227545A1 (published 2023).
Each block holds one binder with its values, some of them ahead of it.

Legend:
[1] = biological target: T1, human IL-1β (human, UniProt P01584 117-269); assay: cell-based or functional assay
[2] = biological target: T2, cynomolgus IL-1β (cynomolgus macaque, UniProt P79182 117-268); assay: cell-based or functional assay
T2 sequence (looked up): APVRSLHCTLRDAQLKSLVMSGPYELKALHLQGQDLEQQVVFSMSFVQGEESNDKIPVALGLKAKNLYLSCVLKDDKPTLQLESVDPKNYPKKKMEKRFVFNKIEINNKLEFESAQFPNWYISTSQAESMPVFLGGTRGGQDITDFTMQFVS

[3] = biological target: T1, human IL-1β; assay: cell-based or functional assay; remark: listed apart in the source
[4] = biological target: T1, human IL-1β; assay: SPR, Biacore 8K, mAb captured on goat anti-human Fc C1 chip, soluble IL-1β as analyte, 1:1 Langmuir fit
Protocol: (§1) Affinity assessment of 05H21A, 15N14A, and 08F17A against human IL-1β was performed by Surface Plasmon Resonance (SPR) using a Biacore 8k. Cross-reactivity of the same antibody panel was also assessed against cyno, mouse, rat and pig IL-1β.
(§2) SPR is a label-free technique to study the strength of an interaction between two binding partners by measuring the change in mass upon complex formation and dissociation. Briefly, antibodies were immobilized on a sensor chip which was coupled with goat anti-human Fc (GAH-Fc C1 sensor chip). Soluble IL-1β was flowed over the immobilized antibody and association/dissociation responses were monitored. Kinetic information (on-rate and off-rate constants) were extracted by fitting sensorgrams to the 1:1 Langmuir model. Binding affinity (KD) were reported as the ratio of rate constants (koff/kₒₙ).

[5] = biological target: T2, cynomolgus IL-1β; assay: as above
Protocol: as §1, §2

[6] = biological target: T1, human IL-1β; assay: cell-based or functional assay; remark: listed apart in the source
[7] = biological target: T3, pig IL-1β (pig, UniProt P26889 115-267); assay: SPR, Biacore 8K, mAb captured on anti-human Fc chip, soluble IL-1β as analyte
T3 construct: also called pig IL-β
T3 sequence (looked up): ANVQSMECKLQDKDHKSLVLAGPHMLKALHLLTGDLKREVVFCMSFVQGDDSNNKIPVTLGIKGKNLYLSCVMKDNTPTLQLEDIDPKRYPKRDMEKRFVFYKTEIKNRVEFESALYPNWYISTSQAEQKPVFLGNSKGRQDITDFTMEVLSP
Protocol: as §1, §2

[8] = biological target: T4, rat IL-1β (rat, UniProt Q63264 117-268); assay: SPR, Biacore 8K, mAb captured on goat anti-human Fc C1 chip, soluble IL-1β as analyte, 1:1 Langmuir fit
T4 construct: also called rat IL-β
T4 sequence (looked up): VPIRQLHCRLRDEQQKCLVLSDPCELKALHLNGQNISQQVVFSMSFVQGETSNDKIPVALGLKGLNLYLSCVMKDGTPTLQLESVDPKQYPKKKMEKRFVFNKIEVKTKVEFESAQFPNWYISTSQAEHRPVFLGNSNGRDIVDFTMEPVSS
Protocol: as §1, §2

[9] = biological target: T5, mouse IL-1β (mouse, UniProt P10749 118-269); assay: SPR, Biacore 8K, mAb captured on anti-human Fc chip, soluble IL-1β as analyte
T5 construct: also called mouse IL-β
T5 sequence (looked up): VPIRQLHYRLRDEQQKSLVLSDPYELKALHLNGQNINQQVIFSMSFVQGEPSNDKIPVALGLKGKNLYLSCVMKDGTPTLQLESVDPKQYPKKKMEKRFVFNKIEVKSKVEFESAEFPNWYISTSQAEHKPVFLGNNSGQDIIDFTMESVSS
Protocol: as §1, §2

- IC30, inhibition of rhIL-1β-induced cytokine release, NHDF donor 29114 [1]: 0.039 nM
- IC30, inhibition of rhIL-1β-induced cytokine release, NHLF donor 34325 [1]: 0.071 nM
- IC30, inhibition of rhIL-1β-induced cytokine release, NHLF donor 35234 [1]: 0.042 nM
- IC50, inhibition of rhIL-1β-induced cytokine release, NHDF donor 29114 [1]: 0.078 nM
- IC50, inhibition of rhIL-1β-induced cytokine release, NHLF donor 34325 [1]: 0.167 nM
- IC50, inhibition of rhIL-1β-induced cytokine release, NHLF donor 35234 [1]: 0.098 nM
- IC90, inhibition of rhIL-1β-induced cytokine release, NHDF donor 29114 [1]: 0.49 nM
- IC90, inhibition of rhIL-1β-induced cytokine release, NHLF donor 34325 [1]: 1.51 nM
- IC90, inhibition of rhIL-1β-induced cytokine release, NHLF donor 35234 [1]: 0.89 nM
- IC30, inhibition of G-CSF release, cynomolgus lung fibroblasts (CLF), 15 pM rcynoIL-1β [2]: 0.195 nM
- IC30, inhibition of IL-6 release, cynomolgus dermal fibroblasts (CDF), 5 pM rcynoIL-1β [2]: 89 pM
- IC30, inhibition of IL-6 release, cynomolgus lung fibroblasts (CLF), 15 pM rcynoIL-1β [2]: 0.214 nM
- IC50, inhibition of G-CSF release, cynomolgus dermal fibroblasts (CDF), 5 pM rcynoIL-1β [2]: 59 pM
- IC50, inhibition of G-CSF release, cynomolgus lung fibroblasts (CLF), 15 pM rcynoIL-1β [2]: 0.27 nM
- IC50, inhibition of IL-6 release, cynomolgus dermal fibroblasts (CDF), 5 pM rcynoIL-1β [2]: 0.175 nM
- IC50, inhibition of IL-6 release, cynomolgus lung fibroblasts (CLF), 15 pM rcynoIL-1β [2]: 0.306 nM
- IC90, inhibition of G-CSF release, cynomolgus lung fibroblasts (CLF), 15 pM rcynoIL-1β [2]: 0.63 nM
- IC90, inhibition of IL-6 release, cynomolgus dermal fibroblasts (CDF), 5 pM rcynoIL-1β [2]: 0.997 nM
- IC90, inhibition of IL-6 release, cynomolgus lung fibroblasts (CLF), 15 pM rcynoIL-1β [2]: 0.779 nM
- IC30, inhibition of rhIL-1β-induced CXCL5 release, human whole blood (5 donors) [3]: 0.4 nM
- IC30, inhibition of rhIL-1β-induced G-CSF release, human whole blood (5 donors) [3]: 0.364 nM
- IC30, inhibition of rhIL-1β-induced IL-6 release, human whole blood (5 donors) [3]: 0.393 nM
- IC50, inhibition of rhIL-1β-induced CXCL5 release, human whole blood (5 donors) [3]: 0.622 nM
- IC50, inhibition of rhIL-1β-induced G-CSF release, human whole blood (5 donors) [3]: 0.632 nM
- IC50, inhibition of rhIL-1β-induced IL-6 release, human whole blood (5 donors) [3]: 0.631 nM
- IC90, inhibition of rhIL-1β-induced CXCL5 release, human whole blood (5 donors) [3]: 1.95 nM
- IC90, inhibition of rhIL-1β-induced G-CSF release, human whole blood (5 donors) [3]: 2.64 nM
- IC90, inhibition of rhIL-1β-induced IL-6 release, human whole blood (5 donors) [3]: 2.16 nM
- Kd [4]: 0.0197 nM
- koff [4]: 0.000422 s⁻¹
- kon [4]: 2.14e+07 M⁻¹ s⁻¹
- Kd [5]: 0.022 nM
- koff [5]: 0.000348 s⁻¹
- kon [5]: 1.58e+07 M⁻¹ s⁻¹
- IC30, inhibition of IL-6 release, human PBMCs (n=5 donors), 10 pM rhIL-1β [6]: 43 pM
- IC30, inhibition of IL-6 release, human PBMCs (n=5 donors), 30 pM rhIL-1β [6]: 0.104 nM
- IC50, inhibition of IL-6 release, human PBMCs (n=5 donors), 10 pM rhIL-1β [6]: 70 pM
- IC50, inhibition of IL-6 release, human PBMCs (n=5 donors), 30 pM rhIL-1β [6]: 0.164 nM
- IC90, inhibition of IL-6 release, human PBMCs (n=5 donors), 10 pM rhIL-1β [6]: 0.244 nM
- IC90, inhibition of IL-6 release, human PBMCs (n=5 donors), 30 pM rhIL-1β [6]: 0.533 nM
- binding result [7]: no binding
B1: 05H21A (antibody, human IgG1, lambda, V domains shown)
VH: QVTLRESGPALVKPTQTLTLTCTFSGFSLSTSGMWVSWIRQPPGKALEWLALIDWGDDKYYTTSLKTRLTISKDTSKNQVVLTMTNMDPVDTATYYCARMREGSRAFDIWGQGTVVTVSS
VL: QSVLTQPPSVSEAPRQRVTISCSGSSSNIGDNAVNWYQQLPGKAPKLLIYNDDLLSSGVSDRFSGSKSGTSASLAISGLQSEDEADYYCAAWDDSLNGPVFGGGTKLTVLG
notes: Lambda light chain; also called 05H21A (anti-IL-1β) mAb [IgG1: YTE]

- IC30, inhibition of rhIL-1β-induced cytokine release, NHDF donor 29114 [1]: 0.069 nM
- IC30, inhibition of rhIL-1β-induced cytokine release, NHLF donor 34325 [1]: 0.128 nM
- IC30, inhibition of rhIL-1β-induced cytokine release, NHLF donor 35234 [1]: 0.09 nM
- IC50, inhibition of rhIL-1β-induced cytokine release, NHDF donor 29114 [1]: 0.127 nM
- IC50, inhibition of rhIL-1β-induced cytokine release, NHLF donor 34325 [1]: 0.253 nM
- IC50, inhibition of rhIL-1β-induced cytokine release, NHLF donor 35234 [1]: 0.178 nM
- IC90, inhibition of rhIL-1β-induced cytokine release, NHDF donor 29114 [1]: 0.626 nM
- IC90, inhibition of rhIL-1β-induced cytokine release, NHLF donor 34325 [1]: 1.48 nM
- IC90, inhibition of rhIL-1β-induced cytokine release, NHLF donor 35234 [1]: 1.04 nM
- IC30, inhibition of G-CSF release, cynomolgus lung fibroblasts (CLF), 15 pM rcynoIL-1β [2]: 0.129 nM
- IC30, inhibition of IL-6 release, cynomolgus dermal fibroblasts (CDF), 5 pM rcynoIL-1β [2]: 93 pM
- IC30, inhibition of IL-6 release, cynomolgus lung fibroblasts (CLF), 15 pM rcynoIL-1β [2]: 0.192 nM
- IC50, inhibition of G-CSF release, cynomolgus lung fibroblasts (CLF), 15 pM rcynoIL-1β [2]: 0.261 nM
- IC50, inhibition of IL-6 release, cynomolgus dermal fibroblasts (CDF), 5 pM rcynoIL-1β [2]: 0.156 nM
- IC50, inhibition of IL-6 release, cynomolgus lung fibroblasts (CLF), 15 pM rcynoIL-1β [2]: 0.376 nM
- IC90, inhibition of G-CSF release, cynomolgus lung fibroblasts (CLF), 15 pM rcynoIL-1β [2]: 1.63 nM
- IC90, inhibition of IL-6 release, cynomolgus dermal fibroblasts (CDF), 5 pM rcynoIL-1β [2]: 0.594 nM
- IC90, inhibition of IL-6 release, cynomolgus lung fibroblasts (CLF), 15 pM rcynoIL-1β [2]: 2.14 nM
- IC30, inhibition of rhIL-1β-induced CXCL5 release, human whole blood (5 donors) [3]: 0.364 nM
- IC30, inhibition of rhIL-1β-induced G-CSF release, human whole blood (5 donors) [3]: 0.299 nM
- IC30, inhibition of rhIL-1β-induced IL-6 release, human whole blood (5 donors) [3]: 0.36 nM
- IC50, inhibition of rhIL-1β-induced CXCL5 release, human whole blood (5 donors) [3]: 0.603 nM
- IC50, inhibition of rhIL-1β-induced G-CSF release, human whole blood (5 donors) [3]: 0.52 nM
- IC50, inhibition of rhIL-1β-induced IL-6 release, human whole blood (5 donors) [3]: 0.595 nM
- IC90, inhibition of rhIL-1β-induced CXCL5 release, human whole blood (5 donors) [3]: 2.24 nM
- IC90, inhibition of rhIL-1β-induced G-CSF release, human whole blood (5 donors) [3]: 2.18 nM
- IC90, inhibition of rhIL-1β-induced IL-6 release, human whole blood (5 donors) [3]: 2.18 nM
- Kd [4]: 0.064 nM
- koff [4]: 0.000141 s⁻¹
- kon [4]: 2.2e+06 M⁻¹ s⁻¹
- Kd [5]: 0.07 nM
- koff [5]: 0.000209 s⁻¹
- kon [5]: 3.01e+06 M⁻¹ s⁻¹
- Kd [8]: 74.5 nM
- koff [8]: 0.0574 s⁻¹
- kon [8]: 771000 M⁻¹ s⁻¹
- IC30, inhibition of IL-6 release, human PBMCs (n=5 donors), 10 pM rhIL-1β [6]: 32 pM
- IC30, inhibition of IL-6 release, human PBMCs (n=5 donors), 30 pM rhIL-1β [6]: 75 pM
- IC50, inhibition of IL-6 release, human PBMCs (n=5 donors), 10 pM rhIL-1β [6]: 56 pM
- IC50, inhibition of IL-6 release, human PBMCs (n=5 donors), 30 pM rhIL-1β [6]: 0.12 nM
- IC90, inhibition of IL-6 release, human PBMCs (n=5 donors), 10 pM rhIL-1β [6]: 0.226 nM
- IC90, inhibition of IL-6 release, human PBMCs (n=5 donors), 30 pM rhIL-1β [6]: 0.409 nM
- binding result [9]: no binding
- binding result [7]: no binding
B2: 15N14A (antibody, human IgG1, lambda, V domains shown)
VH: QVQLQESGPGLVKPSETLSLTCTVSGGSISSYYWTWIRQPAGKGLEWIGRIDSSGSSKYNPTLKSRVTMSVDTSKNQFSLKLSSVTAADTAVYYCARGDSGYDWAFDYWGQGTLVTVSS
VL: QAVLTQPSSLSASPGASASLTCTLRSGINVGTYRIYWYQQKPGSPPQYLLSYKSDSDKQQGSGVPSRFSGSKDASANVGILLISGLQSEDEADYYCMIWHSSAWVFGGGTKLTVLG
notes: Lambda light chain; also called 15N14A (anti-IL-1β) mAb [IgG1: YTE]
